T1: recombinant monomeric mouse TIGIT-His (SEQ ID NO: 3) (mouse, UniProt P86176 29-148)
T1 construct: also called mTIGIT; not shown: His tag
T1 sequence: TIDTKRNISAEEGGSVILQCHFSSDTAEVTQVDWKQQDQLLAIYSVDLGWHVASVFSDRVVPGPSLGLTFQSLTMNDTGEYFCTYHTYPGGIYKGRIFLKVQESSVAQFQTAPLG

T2: recombinant monomeric human TIGIT-His (human, UniProt Q495A1 22-141)
T2 construct: also called hTIGIT; not shown: His tag
T2 sequence: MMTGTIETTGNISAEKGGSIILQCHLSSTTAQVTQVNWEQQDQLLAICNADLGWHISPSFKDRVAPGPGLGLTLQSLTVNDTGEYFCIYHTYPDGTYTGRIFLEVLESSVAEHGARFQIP

T3: mouse TIGIT on primary murine Tregs (mouse, UniProt P86176 29-249)
T3 construct: whole, on cells; also called Mouse Tregs
T3 sequence (looked up): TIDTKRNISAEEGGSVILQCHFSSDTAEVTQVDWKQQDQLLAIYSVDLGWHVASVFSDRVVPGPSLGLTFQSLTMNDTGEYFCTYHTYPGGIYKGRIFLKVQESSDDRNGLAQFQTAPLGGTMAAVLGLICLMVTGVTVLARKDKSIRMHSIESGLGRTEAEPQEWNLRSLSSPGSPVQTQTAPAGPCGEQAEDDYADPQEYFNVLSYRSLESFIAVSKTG

T4: human TIGIT on the cell surface (human, UniProt Q495A1 22-244)
T4 construct: Expressed on engineered Jurkat cells or naturally on human primary CD8+ T cells (the cells are named under assay); also called Human TIGIT Jurkat; human TIGIT expressing Jurkat cells
T4 sequence: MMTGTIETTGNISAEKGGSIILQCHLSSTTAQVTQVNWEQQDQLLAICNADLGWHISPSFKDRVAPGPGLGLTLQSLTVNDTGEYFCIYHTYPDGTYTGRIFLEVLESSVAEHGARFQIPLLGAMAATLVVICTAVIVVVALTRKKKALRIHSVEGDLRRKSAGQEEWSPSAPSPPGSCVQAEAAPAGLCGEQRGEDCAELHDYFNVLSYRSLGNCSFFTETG

B1: SEC1 mouse IgG2a N297A (antibody)
heavy: EVQLVESGGGLTQPGKSLKLSCEASGFTFSSFTMHWVRQSPGKGLEWVAFIRSGSGIVFYADAVRGRFTISRDNAKNLLFLQMNDLKSEDTAMYYCARRPLGHNTFDSWGQGTLVTVSSAKTTAPSVYPLAPVCGDTTGSSVTLGCLVKGYFPEPVTLTWNSGSLSSGVHTFPAVLQSDLYTLSSSVTVTSSTWPSQSITCNVAHPASSTKVDKKIEPRGPTIKPCPPCKCPAPNLLGGPSVFIFPPKIKDVLMISLSPIVTCVVVDVSEDDPDVQISWFVNNVEVHTAQTQTHREDYASTLRVVSALPIQHQDWMSGKEFKCKVNNKDLPAPIERTISKPKGSVRAPQVYVLPPPEEEMTKKQVTLTCMVTDFMPEDIYVEWTNNGKTELNYKNTEPVLDSDGSYFMYSKLRVEKKNWVERNSYSCSVVHEGLHNHHTTKSFSRTPGK
light: DIVMTQSPSSLAVSPGEKVTMTCKSSQSLYYSGVKENLLAWYQQKPGQSPKLLIYYASIRFTGVPDRFTGSGSGTDYTLTITSVQAEDMGQYFCQQGINNPLTFGDGTKLEIKRADAAPTVSIFPPSSEQLTSGGASVVCFLNNFYPKDINVKWKIDGSERQNGVLNSWTDQDSKDSTYSMSSTLTLTKDEYERHNSYTCEATHKTSTSPIVKSFNRNEC
notes: also called SEC1 IgG2a N297A
B2: SEC1 human IgG4 S228P (antibody)
heavy: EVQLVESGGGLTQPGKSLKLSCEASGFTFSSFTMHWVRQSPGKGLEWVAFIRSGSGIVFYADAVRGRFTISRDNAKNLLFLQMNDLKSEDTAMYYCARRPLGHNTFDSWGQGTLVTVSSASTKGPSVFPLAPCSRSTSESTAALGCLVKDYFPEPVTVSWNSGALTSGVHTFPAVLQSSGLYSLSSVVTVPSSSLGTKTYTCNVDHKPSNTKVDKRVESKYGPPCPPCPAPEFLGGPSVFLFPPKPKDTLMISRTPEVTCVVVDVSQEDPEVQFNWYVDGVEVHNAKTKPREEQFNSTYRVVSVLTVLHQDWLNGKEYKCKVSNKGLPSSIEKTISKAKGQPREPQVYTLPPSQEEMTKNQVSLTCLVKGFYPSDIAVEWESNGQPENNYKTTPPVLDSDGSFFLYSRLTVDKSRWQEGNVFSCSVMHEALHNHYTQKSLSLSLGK
light: DIVMTQSPSSLAVSPGEKVTMTCKSSQSLYYSGVKENLLAWYQQKPGQSPKLLIYYASIRFTGVPDRFTGSGSGTDYTLTITSVQAEDMGQYFCQQGINNPLTFGDGTKLEIKRTVAAPSVFIFPPSDEQLKSGTASVVCLLNNFYPREAKVQWKVDNALQSGNSQESVTEQDSKDSTYSLSSTLTLSKADYEKHKVYACEVTHQGLSSPVTKSFNRGEC
notes: Chimeric: hamster variable regions, human IgG4 S228P and human kappa constant regions; also called SEC1 (IgG4 S228P)

Legend:
[1] = biological target: T1, recombinant monomeric mouse TIGIT-His …; assay: BLI (Octet QKe), SEC1 on AMC sensor, mouse TIGIT-His 33 to 1.22 nM, 1:1 global fit
[2] = biological target: T2, recombinant monomeric human TIGIT-His; assay: BLI (Octet QKe), SEC1 on AMC sensor, human TIGIT-His 33.8 to 1.25 nM, 1:1 global fit
[3] = biological target: T5, recombinant monomeric cynomolgus monkey TIGIT-His (cynomolgus monkey); assay: BLI (Octet QKe), SEC1 on AMC sensor, cynomolgus monkey TIGIT-His in solution
T5 construct: also called Cyno TIGIT His; cTIGIT; not shown: His tag
T5 sequence (chain, as listed by the source limits assumed): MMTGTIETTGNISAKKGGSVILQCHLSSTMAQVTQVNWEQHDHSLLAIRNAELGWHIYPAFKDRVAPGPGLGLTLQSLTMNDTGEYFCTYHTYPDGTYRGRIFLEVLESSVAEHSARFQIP

[4] = biological target: T3, mouse TIGIT on primary murine Tregs; assay: flow cytometry on primary murine Tregs, average
[5] = biological target: T4, human TIGIT on the cell surface; assay: flow cytometry on human primary CD8+ T cells
[6] = biological target: T6, cynomolgus monkey TIGIT on the cell surface (cynomolgus monkey); assay: flow cytometry on cynomolgus monkey primary CD8+ T cells
T6 construct: Expressed on engineered Jurkat cells or naturally on cynomolgus monkey primary CD8+ T cells (the cells are named under assay); also called Cynomolgus Monkey TIGIT Jurkat; Cynomolgus Monkey CD8
T6 sequence (chain, as listed by the source limits assumed): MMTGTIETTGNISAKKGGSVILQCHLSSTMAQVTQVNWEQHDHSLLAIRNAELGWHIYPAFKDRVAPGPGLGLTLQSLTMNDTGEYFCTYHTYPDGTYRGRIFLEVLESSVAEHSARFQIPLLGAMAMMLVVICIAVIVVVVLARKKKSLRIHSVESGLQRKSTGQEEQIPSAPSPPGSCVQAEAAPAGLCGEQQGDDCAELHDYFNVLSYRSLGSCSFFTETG

Binder | Kd [1] [nM] | koff [1] [s⁻¹] | kon [1] [M⁻¹ s⁻¹] | Kd [2] [nM] | koff [2] [s⁻¹] | kon [2] [M⁻¹ s⁻¹] | binding result [3] | Kd [4] [nM] | Kd [5] [nM] | binding result [6]
B1 | 0.32 | 0.0006 | 1.9e+06 | 4.7 | 0.0079 | 1.7e+06 | no binding (tested: 302.8 to 0.42 nM) |  |  | 
B2 |  |  |  |  |  |  |  | 0.41 | 3.6 | no binding

Reference: patent US20170340735A1 (published 2017)
